# Results as given in the Immune Epitope Database (IEDB).
# pKd: −log10 of the molar value.
# Tests used:
# [1] = molecular target: HLA-B*27:03; assay: IEDB peptide-MHC binding, purified MHC/competitive/fluorescence; filed as Kd, often an IC50 or EC50 that approximates it; ≥ and ≤ were set here for values at or beyond the usual limits of such assays
# [2] = molecular target: HLA-A*02:01; assay: as above
# [3] = molecular target: HLA-B*46:01; assay: as above
# [4] = molecular target: HLA-B*39:01; assay: as above
# [5] = molecular target: HLA-B*57:01; assay: as above
# [6] = molecular target: HLA-B*15:17; assay: as above
# [7] = molecular target: HLA-A*69:01; assay: as above
# [8] = molecular target: HLA-B*51:01; assay: as above
# [9] = molecular target: HLA-B*18:01; assay: as above
# [10] = molecular target: HLA-A*26:01; assay: IEDB peptide-MHC binding, purified MHC/direct/fluorescence; filed as Kd, often an IC50 or EC50 that approximates it; ≥ and ≤ were set here for values at or beyond the usual limits of such assays; details: source organism: Hantavirus Monongahela-3
# [11] = molecular target: HLA-A*02:16; assay: as above
# [12] = molecular target: HLA-A*02:19; assay: as above
# [13] = molecular target: HLA-A*24:03; assay: as above
# [14] = molecular target: HLA-A*03:01; assay: as above
# [15] = molecular target: HLA-A*29:02; assay: as above
# [16] = molecular target: HLA-A*02:12; assay: as above
# [17] = molecular target: HLA-B*15:01; assay: IEDB peptide-MHC binding, purified MHC/competitive/fluorescence; filed as Kd, often an IC50 or EC50 that approximates it; ≥ and ≤ were set here for values at or beyond the usual limits of such assays
# [18] = molecular target: HLA-B*45:06; assay: as above; details: source organism: Mycobacterium tuberculosis C
# [19] = molecular target: HLA-B*83:01; assay: as above; details: source organism: Mycobacterium tuberculosis C
# [20] = molecular target: HLA-A*30:01; assay: as above; details: source organism: Mycobacterium tuberculosis C
# [21] = molecular target: HLA-B*15:42; assay: as above; details: source organism: Mycobacterium tuberculosis C
# [22] = molecular target: HLA-B*08:01; assay: IEDB peptide-MHC binding, purified MHC/direct/fluorescence; filed as Kd, often an IC50 or EC50 that approximates it; ≥ and ≤ were set here for values at or beyond the usual limits of such assays; details: source organism: Mycobacterium tuberculosis str. Haarlem
# [23] = molecular target: HLA-A*02:01; assay: as above; details: source organism: Mycobacterium tuberculosis
# [24] = molecular target: HLA-B*08:02; assay: as above; details: source organism: Mycobacterium tuberculosis str. Haarlem
# [25] = molecular target: HLA-B*46:01; assay: as above; details: source organism: Mycobacterium tuberculosis
# [26] = molecular target: HLA-B*40:01; assay: as above; details: source organism: Mycobacterium tuberculosis
# [27] = molecular target: HLA-B*27:05; assay: as above; details: source organism: Mycobacterium tuberculosis
# [28] = molecular target: HLA-B*57:01; assay: as above; details: source organism: Mycobacterium tuberculosis
# [29] = molecular target: HLA-B*58:01; assay: as above; details: source organism: Mycobacterium tuberculosis
# [30] = molecular target: HLA-A*01:01; assay: as above; details: source organism: Mycobacterium tuberculosis
# [31] = molecular target: HLA-A*11:01; assay: as above; details: source organism: Mycobacterium tuberculosis
# [32] = molecular target: HLA-A*69:01; assay: as above; details: source organism: Mycobacterium tuberculosis
# [33] = molecular target: HLA-B*51:01; assay: as above
# [34] = molecular target: HLA-A*31:01; assay: as above; details: source organism: Mycobacterium tuberculosis
# [35] = molecular target: HLA-B*18:01; assay: as above; details: source organism: Mycobacterium tuberculosis
# [36] = molecular target: HLA-B*48:01; assay: as above; details: source organism: Mycobacterium tuberculosis
# [37] = molecular target: HLA-C*12:03; assay: as above
# [38] = molecular target: HLA-A*26:01; assay: IEDB peptide-MHC binding, purified MHC/competitive/fluorescence; filed as Kd, often an IC50 or EC50 that approximates it; ≥ and ≤ were set here for values at or beyond the usual limits of such assays; details: source organism: Lechiguanas virus
# [39] = molecular target: HLA-A*24:03; assay: as above; details: source organism: Lechiguanas virus
# [40] = molecular target: HLA-A*68:02; assay: IEDB peptide-MHC binding, purified MHC/direct/fluorescence; filed as Kd, often an IC50 or EC50 that approximates it; ≥ and ≤ were set here for values at or beyond the usual limits of such assays
# [41] = molecular target: HLA-A*02:03; assay: as above
# [42] = molecular target: HLA-A*02:11; assay: as above
# [43] = molecular target: HLA-A*02:12; assay: IEDB peptide-MHC binding, purified MHC/competitive/fluorescence; filed as Kd, often an IC50 or EC50 that approximates it; ≥ and ≤ were set here for values at or beyond the usual limits of such assays; details: source organism: Shigella dysenteriae Sd197
# [44] = molecular target: HLA-B*15:01; assay: IEDB peptide-MHC binding, purified MHC/direct/fluorescence; filed as Kd, often an IC50 or EC50 that approximates it; ≥ and ≤ were set here for values at or beyond the usual limits of such assays; details: source organism: Itapua hantavirus
# [45] = source organism: New York virus
# [46] = source organism: Mycobacterium tuberculosis
# [47] = source organism: Lechiguanas virus
# [48] = source organism: Rio Mamore hantavirus
# [49] = source organism: Vibrio vulnificus CMCP6
# [50] = source organism: Salmonella enterica subsp. enterica serovar Typhi
# [51] = source organism: West Nile virus
# [52] = source organism: Araucaria virus
sequence,measurement,setting,value
FVKDWMDRI,pKd,[1]; [45],≤ 4.70
same,pKd,[2]; [45],≤ 4.70
same,pKd,[3]; [45],≤ 4.70
same,pKd,[4]; [45],≤ 4.70
same,pKd,[5]; [45],≤ 4.70
same,pKd,[6]; [45],≤ 4.70
same,pKd,[7]; [45],≤ 4.70
same,pKd,[8]; [45],≤ 4.70
same,pKd,[9]; [45],≤ 4.70
same,pKd,[10],7.18
same,pKd,[11]; source organism: Choclo virus,≤ 4.70
same,pKd,[12]; source organism: Choclo virus,≤ 4.70
same,pKd,[13]; source organism: Choclo virus,≤ 4.70
same,pKd,[14]; source organism: Choclo virus,≤ 4.70
same,pKd,[15]; source organism: Choclo virus,≤ 4.70
same,pKd,[16]; source organism: Choclo virus,≤ 4.70
APRARTAAF,pKd,[17]; source organism: Mycobacterium tuberculosis C,≤ 4.70
same,pKd,[18],≤ 5.30
same,pKd,[19],7.28
same,pKd,[20],≤ 4.70
same,pKd,[21],≤ 5.30
same,pKd,[22],8.30
same,pKd,[23],≤ 4.70
same,pKd,[24],6.64
same,pKd,[25],≤ 4.70
same,pKd,[26],≤ 4.70
same,pKd,[27],≤ 4.70
same,pKd,[28],≤ 4.70
same,pKd,[29],≤ 4.70
same,pKd,[30],≤ 4.70
same,pKd,[31],≤ 4.70
same,pKd,[32],≤ 4.70
same,pKd,[14]; [46],≤ 4.70
same,pKd,[33]; [46],≤ 4.70
same,pKd,[34],≤ 4.70
same,pKd,[35],4.91
same,pKd,[36],≤ 4.70
FSLENVRLM,pKd,[37]; source organism: Leishmania panamensis,6.11
LQPSDTLLF,pKd,[1]; [47],≤ 4.70
same,pKd,[2]; [47],≤ 4.70
same,pKd,[38],≤ 4.70
same,pKd,[3]; [47],≤ 4.70
same,pKd,[4]; [47],≤ 4.70
same,pKd,[5]; [47],≤ 4.70
same,pKd,[39],8.31
same,pKd,[6]; [47],≤ 4.70
same,pKd,[7]; [47],≤ 4.70
same,pKd,[8]; [47],≤ 4.70
same,pKd,[9]; [47],≤ 4.70
same,pKd,[40]; [48],≤ 4.70
same,pKd,[11]; [48],≤ 4.70
same,pKd,[12]; [48],≤ 4.70
same,pKd,[41]; [48],≤ 4.70
same,pKd,[14]; [48],≤ 4.70
same,pKd,[42]; [48],≤ 4.70
same,pKd,[15]; [48],≤ 4.70
same,pKd,[16]; [48],≤ 4.70
SVFSRPLPL,pKd,[2]; source organism: Shigella dysenteriae Sd197,≥ 10.00
same,pKd,[43],6.74
FAFHTVFHI,pKd,[8]; [49],7.37
same,pKd,[37]; [49],≥ 9.00
TQFAGVVTV,pKd,[17]; [50],6.67
same,pKd,[2]; [50],9.30
same,pKd,[4]; [50],8.77
same,pKd,[37]; source organism: Salmonella enterica subsp. enterica serovar Typhi str. CT18,8.52
RVYSDHQAL,pKd,[37]; [51],6.19
same,pKd,[33]; [51],≤ 4.70
AFMATNKAY,pKd,[1]; [52],≤ 4.70
same,pKd,[2]; [52],≤ 4.70
same,pKd,[3]; [52],≤ 4.70
same,pKd,[4]; [52],≤ 4.70
same,pKd,[5]; [52],≤ 4.70
same,pKd,[6]; [52],≤ 4.70
same,pKd,[7]; [52],≤ 4.70
same,pKd,[8]; [52],≤ 4.70
same,pKd,[9]; [52],≤ 4.70
same,pKd,[40]; [52],≤ 4.70
same,pKd,[44],7.03
same,pKd,[11]; [52],≤ 4.70
same,pKd,[12]; [52],≤ 4.70
same,pKd,[13]; [52],≤ 4.70
same,pKd,[41]; [52],≤ 4.70
same,pKd,[14]; [52],≤ 4.70
same,pKd,[42]; [52],≤ 4.70
same,pKd,[16]; [52],≤ 4.70
YLQQNTHTL,pKd,[37]; source organism: Homo sapiens,7.05
